Measured values from article PMC3428624.

Target: histone H3 K115C (UniProt P84233)
Test: cross-linking

- efficiency of crosslinking at H3 K115C (H3-H3’): 80%
Substance: histone H3 K115C (from UniProt P84233 2-136) (natural protein)
